Patent US20220220200A1

Tests used:
[1] = molecular target: CD19 on the cell surface (native CD19 antigen) (human) (UniProt P15391); test: flow cytometry, phage clone on Raji cells (CD19-positive)
[2] = molecular target: CD19 on the cell surface (native CD19 antigen) (human) (UniProt P15391); test: flow cytometry, phage clone on JVM-2 cells (CD19-positive)
[3] = molecular target: CD19 on the cell surface (native CD19 antigen) (human) (UniProt P15391); test: flow cytometry, phage clone on K562-CD19 cells (CD19-positive)

Sequence of CD19 on the cell surface (native CD19 antigen) (human) (P15391 20-556): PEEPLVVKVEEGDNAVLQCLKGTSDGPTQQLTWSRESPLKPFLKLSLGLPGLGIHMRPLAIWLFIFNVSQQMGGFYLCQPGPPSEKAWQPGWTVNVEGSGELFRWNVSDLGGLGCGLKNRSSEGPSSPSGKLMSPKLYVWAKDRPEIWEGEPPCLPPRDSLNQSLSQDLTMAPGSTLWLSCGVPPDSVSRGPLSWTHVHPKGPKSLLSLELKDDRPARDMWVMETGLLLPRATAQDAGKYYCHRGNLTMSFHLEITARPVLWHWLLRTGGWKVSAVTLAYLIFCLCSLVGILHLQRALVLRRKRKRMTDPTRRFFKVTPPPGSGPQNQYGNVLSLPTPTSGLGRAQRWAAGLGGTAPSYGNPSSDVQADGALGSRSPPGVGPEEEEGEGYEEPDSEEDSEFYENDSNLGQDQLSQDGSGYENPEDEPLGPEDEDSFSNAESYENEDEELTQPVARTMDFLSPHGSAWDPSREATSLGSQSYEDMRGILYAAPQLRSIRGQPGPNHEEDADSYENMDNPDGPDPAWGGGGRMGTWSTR

FMC-63 (humanized mouse anti-human CD19 phage antibody clone) (scFv)
MFI [1]: 55.8
MFI [2]: 22.4
MFI [3]: 38.1
